Assay: yeast display, Sf9 membrane polyspecificity reagent, FACS + sequencing; frameworks hold sequencing errors
How it was run: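 A nanobody's polyreactivity label depends on the gate it was sorted from. Yeast display cells were stained with 10% biotinylated, detergent-solubilized Sf9 membrane reagent for 1 hour at 4 °C, enriched on streptavidin microbeads and sorted by FACS. The low and high (top ~1%) gates were set on anti-HA fluorescence for expression and streptavidin fluorescence for reagent binding.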

| Sequence | polyreactivity (PSR sort gate) |
| --- | --- |
| QVQLVESGGGLVQAGGSLRLSCAASGSIFPLYAMGWYRQAPGKERELVAGINGNDGSTYYADSVKGRFTISRDYEKNTVYLQRNRLKPEDTAVYYCAARGSTAHPHYPFNYWGQGTQVTVSS | low polyreactivity |
| QVQLVESGGGLVQAGGSLRLSCAASGSIFPPYAMGWYRQAPGKERELVATITIRGGSTYYADSVKGRFTISRDNAKNSVYLQMNSLKPEDTAVYYCAADYTKYYRRYYYWGQGTQVTVSS | high polyreactivity |
| QVQLVESGGGLVQAGGSLRLSCAASGSIFPQYAMGWYRQAPGKERELVAAISWSGGRTYYADSVKGRFTISRDNAKNTVYIQMNSLKPEDTAVYYCNRLYRRWYGREDDYWGQGTQVTVSS | high polyreactivity |
| QVQLVESGGGLVQAGGSLRLSCAASGSIFPQYAMGWYRQAPGKERELVAVISWSGGRTYYADSVKGRFTISRDNAKNTVYLQMNSLKPEDTAVYYCAAKYWYQRYPQSSYTRYYWGQGTQVTVSS | high polyreactivity |
| QVQLVESGGGLVQAGGSLRLSCAASGSIFPRNAMGWSRQAPGKEMELVATITSGTSTNYADSVKGRFTISRDNAKNTVYLQMNSLKPEDTAVYYCAADHYYTGTTYNYWGQGTQVTVSS | low polyreactivity |
| QVQLVESGGGLVQAGGSLRLSCAASGSIFPRNAMGWYRQAPGKERELVAAISWRGGRTYYADSVKGRFTISRDNAKKTVYLQMNSLNPEDTAVYYCSEQYSRWKRGEYYLSSSYGYWGQGTQVTVSS | high polyreactivity |
| QVQLVESGGGLVQAGGSLRLSCAASGSIFPRNAMGWYRQAPGKERELVAAITSSGGTTYYADSVKGRFTISRDNAKNTVYLQMISLKPEDTAVYYCNAAYPYSSVGRDYWGQGTQVTVSS | high polyreactivity |
| QVQLVESGGGLVQAGGSLRLSCAASGSIFPRYAMGWYRQAPGKERELVAAITGSGSSTYYADSVKGRFTISRDNAKNTVYLQMNSLKPEDTAVYYCADRFIWGYWGVGYYYWGQGTQVTVSS | low polyreactivity |
| QVQLVESGGGLVQAGGSLRLSCAASGSIFPRYAMGWYRQAPGKERELVAAITGSGSSTYYADSVKGRFTISRDNAKNTVYLQMNSLKPEDTAVYYCAGVYTYPLGYYHYTYDYWGQGTQVTVSS | low polyreactivity |
| QVQLVESGGGLVQAGGSLRLSCAASGSIFPRYAMGWYRQAPGKERELVAAITSSAGSTYYADSVKGRFTISRDNAKNTVYLQMNSLKPEDTAVYYCAASGPWSYWYDYWGQGTQVTVSS | low polyreactivity |
| QVQLVESGGGLVQAGGSLRLSCAASGSIFPRYVMAWYRQAPGKERELVAAISGSGGSTYYADSVKGRFTISRDNAKNTVYFQMNSLIPEDTAVYYCNKLRRRVNRDIDDYWGQGTQVTVSS | high polyreactivity |
| QVQLVESGGGLVQAGGSLRLSCAASGSIFPSNAMGWYRQAPGKERELVAAISSSGGRTYYADSVKGRFTISRDNAKNTVYLQMNSLKPEDTAVYYCNRVYFKSRQGQMYYWGQGTQVTVSS | high polyreactivity |
| QVQLVESGGGLVQAGGSLRLSCAASGSIFPSNAMGWYRQAPGKERELVAAISWSGDITYYADSVKGRFTISRDNAKNTVYLQLNSLKPEDTAVYYCAADTPIAGYWYNYWGQGTQVTVSS | low polyreactivity |
| QVQLVESGGGLVQAGGSLRLSCAASGSIFPSYAMGWYRQAPGKERELVAAISKSGGRTKYADSVKGRFTISRDNAKNTVYLQMNSLKPEDTAVYYCAAYAYFHRREGYWGQGTQVTVSS | high polyreactivity |
| QVQLVESGGGLVQAGGSLRLSCAASGSIFPSYAMGWYRQAPGKERELVAAISRSAGSTYYADSVKGRFTISRDNAKNTVYLQMNSLKPEDTAVYYCAADGYSSRYRYDYWGQGTQVTVSS | low polyreactivity |
| QVQLVESGGGLVQAGGSLRLSCAASGSIFPSYAMGWYRQAPGKERELVAAISSSGGSTYYADSVKGRFTISRDNAKNTVYLQMNSLKPEDTAVYYCATRYRRWSTVVQDDYWGQGTQVTVSS | low polyreactivity |
| QVQLVESGGGLVQAGGSLRLSCAASGSIFPSYAMGWYRQAPGKERELVATIGRGGTTNYADSVKGRFTISRDNAKNTVYLQMNSLKPEDTAVYYCNAERIWRYKYGYDYWGQGTQVTVSS | high polyreactivity |
| QVQLVESGGGLVQAGGSLRLSCAASGSIFPVNAMGLYRQAPGKERELVAAITASGDSTYYADSVKGRFTISRDNAKNTVYLQMNSLKPEDTAVYYCNADGSYENREVYSFYYWGQGTQVTVSS | low polyreactivity |
| QVQLVESGGGLVQAGGSLRLSCAASGSIFPVYAMGWYRQAPGKERELVAAITWRSGSTYYADSVKGRFTISRDNAKNTVYLQMNSLKPDDTAVYYCAKVPTYRFDHWGQGTQVTVSS | high polyreactivity |
| QVQLVESGGGLVQAGGSLRLSCAASGSIFPWYAMGWYRQAPGKERELVAAISTGGSTYYADSVKGRFTISRDNAKNTVYLQMNSLKPEDTAVYYCAAAYGKYRFGYWGQGTQVTVSS | high polyreactivity |
| QVQLVESGGGLVQAGGSLRLSCAASGSIFPYNAMGWYRQAPGKERELVAAISISGGSTYYADSVKGRFSISRDNAKNTVYLQMNSLKPEDTAVYYCAARQSLSSAFDYWGQGTQVTVSS | low polyreactivity |
| QVQLVESGGGLVQAGGSLRLSCAASGSIFPYYAMGWYRPAPGKERELVAAISSGGSTNYADSVKGRFTISRDNAKNTVYLEMNSLKPEDTAVYYCAARWSRLFRHRVNYWYDYWGQGTQVTVSS | high polyreactivity |

| Sequence | polyreactivity (PSR sort gate) |
| --- | --- |
| QVQLVESGGGLVQAGGSLRLSCAASGSIFPYYAMGWYRQAPGKERELVAAISSGGSTNYADSVKGRFTISRDNAKNTVYLQMNSLKPEDTAEYYCAARWSRIFRDRVKYWYDYWGQGTQVTVSS | low polyreactivity |
| QVQLVESGGGLVQAGGSLRLSCAASGSIFPYYAMGWYRQAPGKERELVAAITYIGGDTYYADSVKGRFTISRDNAKNTVYLQMNSLKPEETEVYYCNRPSSLAWPWTGSFSRYDYWGQGTQVTVSS | low polyreactivity |
| QVQLVESGGGLVQAGGSLRLSCAASGSIFPYYAMGWYRQAPGKEWEFVAAISRRGGSTNYADSVKGRFTISRDTAKNTVYLQMNSLKPEDTAVYYCGKYTSYSRGYDYWGQGTQVTVSS | high polyreactivity |
| QVQLVESGGGLVQAGGSLRLSCAASGSIFPYYAMGWYRQSPGKERELVASSNQSDGTTYYADSVKGRFTISRDNAKNTVYLQMNSLKPEDTAVYYCAADTTLQAFIRYRPIGSYDSWGQGTQVTVSS | low polyreactivity |
| QVQLVESGGGLVQAGGSLRLSCAASGSIFPYYVMGWYRQAPGKERELVAAISWSGASTYYADSVKGRFTISRDNAKNTVYLQMNSLKPEDTAVYYCAKYSSHFENDYWGQGTQVTVSS | low polyreactivity |
| QVQLVESGGGLVQAGGSLRLSCAASGSIFQAYAMGWYRQAPGKERELVASISSGGGTNYADSVKGRFTISRDNAKNTVYLQMNSLKPEDTAVYYCAADVYLVKYDYWGQGTQVTVSS | low polyreactivity |
| QVQLVESGGGLVQAGGSLRLSCAASGSIFQGYPMGWYRQAPGKERELVATIRWSSGSRTNYADSVKGRFTISRDNAKNTVYLQMNSLKPEDTAVYYCAAGSRRYKYDYWGQGTQVTVSS | high polyreactivity |
| QVQLVESGGGLVQAGGSLRLSCAASGSIFQHYAMGWYRQAPGKERELVAAISYDTTSTYYADSVKGLFTISRDNAKNTVYLQMNSLKPEDPAVYYCNTDPEVYGPFQYDYWGQGTQVTVSS | low polyreactivity |
| QVQLVESGGGLVQAGGSLRLSCAASGSIFQHYAMGWYRQAPGKVRELVAAISSDTTSTYYADSVKGRFTISRDNAKNTVYLQMHSLKPEDTAVYYCNTYPEVYGPFQYDYWGQGTQVTVSS | low polyreactivity |
| QVQLVESGGGLVQAGGSLRLSCAASGSIFQKNAMGWYRQAPGKERELVAVITRGGTSTYYADSVKGRFTISRDNAKNTVYLQMNSLKAEDTAVYSCAAKADKRLDYWGQGTQVTVSS | low polyreactivity |
| QVQLVESGGGLVQAGGSLRLSCAASGSIFQPYAMGWYRQAPGKERELVAAINGRGGSTHYADSVKGRFTISRDNAKNTVYLQMNSLKPEDTAVYYCAARYYRDYRWYTYAYDYWGQGTQVTVSS | high polyreactivity |
| QVQLVESGGGLVQAGGSLRLSCAASGSIFQQYAMGWYRQAPGKERELVASINTSGDGTYYADSVKGRFTISRDNAKNSVYLQMNSLKPEDTAVYYCAVEGIFEQLNRMDYWGQGTQVTVSS | low polyreactivity |
| QVQLVESGGGLVQAGGSLRLSCAASGSIFQRNAMGSYRQAPGKERELVAAITYSGGGTYYADSVKGRFTISRDNAKNTVYLQMNSLKPEDTAVYYCNADGPSTPWVDYGYWGQGTQVTVSS | low polyreactivity |
| QVQLVESGGGLVQAGGSLRLSCAASGSIFQRNAMGWYRQAPGKERELVAAITYSGGGTYYADSVKGRFTISRDNAKNTVYLQMNSLKPEDTAVYYCAADYKSKYSGYIYDYWGQGTQVTVSS | low polyreactivity |
| QVQLVESGGGLVQAGGSLRLSCAASGSIFQRYAMGWYRQAPGKEREFVAAISGRGGSTYYADSVKGRFTISRDNAKNTVYLQMNSLKPEDTAVYYCAADSSRFYGRPRYYYWGQGTQVTVSS | high polyreactivity |
| QVQLVESGGGLVQAGGSLRLSCAASGSIFQRYTMGWYRQAPGKERELVARISGRGGSTYYADSVKGRFTISRDNAKNTVYLQMKSLKPEDTAVYYCAADTGRYLDSNYWGQGTQVTVSS | high polyreactivity |
| QVQLVESGGGLVQAGGSLRLSCAASGSIFQSYTMGGYRQAPGKERELVAAINSGGRTNYADSVKGRFTITRDNAKYTVYLQMNSLKPEDTAVYYCAKRLSTRASFGEEDSWGQGTQVTVSS | low polyreactivity |
| QVQLVESGGGLVQAGGSLRLSCAASGSIFQVYAMGWYRQAPGKEREFVAAISYSGGGTYYADSVKGRFTISRDNAKNSVYLQMNSLKPEDTAVYYCAADVSGWEYDYWGQGTQVTVSS | low polyreactivity |
| QVQLVESGGGLVQAGGSLRLSCAASGSIFQVYAMGWYRQAPGKEREFVAAISYSGGGTYYADSVKGRFTISRDTAKNTVYLQMNSLKPEDSAVYYCAATEQYGRDSWSSYRIFPPYDDWGQGTQVTVSS | low polyreactivity |
| QVQLVESGGGLVQAGGSLRLSCAASGSIFQYNAMGWYRQAPGKERELVAAINGGGSTYYADSEKGRFTISRDNAKNTVYLQMNSLKPEDTAVYYCAADGGAYSYRGPGKFGIEDSWGQGTQVTVSS | low polyreactivity |
| QVQLVESGGGLVQAGGSLRLSCAASGSIFRAYAMGWYRQAPGKERELVAAISWGGGSTSYADSVKGRFTISRDNAKNTVYLQMNSLKPEDTAVYYCNKVSLSKRRDYYWGQGTQVTVSS | high polyreactivity |

Source: the nanobody polyreactivity screen of Harvey et al. (2022)
